According to paper PMC11379823:

Target: T1, human orexin receptor 2 (human) (UniProt O43614)
T1 sequence: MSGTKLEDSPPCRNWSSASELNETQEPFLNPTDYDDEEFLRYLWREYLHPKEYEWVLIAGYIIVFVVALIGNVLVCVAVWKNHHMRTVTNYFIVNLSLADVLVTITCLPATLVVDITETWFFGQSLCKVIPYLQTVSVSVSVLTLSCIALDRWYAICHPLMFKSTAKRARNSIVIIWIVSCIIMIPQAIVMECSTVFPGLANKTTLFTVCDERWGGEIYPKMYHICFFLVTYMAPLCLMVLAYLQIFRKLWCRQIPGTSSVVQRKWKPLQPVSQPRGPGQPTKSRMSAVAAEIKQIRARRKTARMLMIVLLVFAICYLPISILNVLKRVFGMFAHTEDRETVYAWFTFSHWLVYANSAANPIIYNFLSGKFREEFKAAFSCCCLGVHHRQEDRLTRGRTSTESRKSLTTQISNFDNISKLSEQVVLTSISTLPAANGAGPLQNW

## orexin-B (from UniProt O43612 70-97) (peptide)
  intracellular accumulation of IP1 in hOX2R/CHO-EA cells, EC50: 3.2 nM
  intracellular phosphorylation of CREB (Ser133) in hOX2R/CHO-EA cells, EC50: 4.7 nM
  β-arrestin recruitment in hOX2R/CHO-EA cells (PathHunter), EC50: 4 nM

## QPLPDCCRQKTCSCRLYELLHGAGNHAAGILTL [orexin-A]
  intracellular accumulation of IP1 in hOX2R/CHO-EA cells, EC50: 0.84 nM
  intracellular phosphorylation of CREB (Ser133) in hOX2R/CHO-EA cells, EC50: 1.8 nM
  β-arrestin recruitment in hOX2R/CHO-EA cells (PathHunter), EC50: 3 nM
